The values that follow come from paper PMC8632965 (2021).

For orientation: Kd means a measure of binding affinity in units of concentration.

The labels stand for the following.
T1: caveolin-1 protein (UniProt Q03135 1-178)
T1 chain: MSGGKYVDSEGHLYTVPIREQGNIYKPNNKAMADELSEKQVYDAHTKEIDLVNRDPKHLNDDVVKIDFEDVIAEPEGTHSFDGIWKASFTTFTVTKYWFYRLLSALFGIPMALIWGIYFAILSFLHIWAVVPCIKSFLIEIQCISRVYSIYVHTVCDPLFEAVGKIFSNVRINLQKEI

B1: extracellular portion of CD98 (212-630 of CD98hc) (domain or fragment)
chain: ELPAQKWWHTGALYRIGDLQAFQGHGAGNLAGLKGRLDYLSSLKVKGLVLGPIHKNQKDDVAQTDLLQIDPNFGSKEDFDSLLQSAKKKSIRVILDLTPNYRGENSWFSTQVDTVATKVKDALEFWLQAGVDGFQVRDIENLKDASSFLAEWQNITKGFSEDRLLIAGTNSSDLQQILSLLESNKDLLLTSSYLSDSGSTGEHTKSLVTQYLNATGNRWCSWSLSQARLLTSFLPAQLLRLYQLMLFTLPGTPVFSYGDEIGLDAAALPGQPMEAPVMLWDESSFPDIPGAVSANMTVKGQSEDPGSLLSLFRRLSDQRSKERSLLHGDFHAFSAGPGLFSYIRHWDQNERFLVVLNFGDVGLSAGLQASDLPASASLPAKADLLLSTQPGREEGSPLELERLKLEPHEGLLLRFPYAA
B2: extracellular portion of CD147 (ECD), amino acids 22–205 (domain or fragment)
chain: AAGTVFTTVEDLGSKILLTCSLNDSATEVTGHRWLKGGVVLKEDALPGQKTEFKVDSDDQWGEYSCVFLPEPMGTANIQLHGPPRVKAVKSSEHINEGETAMLVCKSESVPPVTDWAWYKITDSEDKALMNGSESRFFVSSSQGRSELHIENLNMEADPGQYRCNGTSSKGSDQAIITLRVRSH

Experiment [1] concerns the target domain 1 of CD147 with the K63A mutation (human, UniProt P35613-2 22-205, K63A). The experiment is described as follows: SPR. (In general: In SPR one partner is held on a chip, and binding of the other changes the refractive index at the surface.)
Experiment [2] deals with B1. The experiment is described as follows: SPR.
Experiment [3] has as its target T1, caveolin-1 protein. Briefly: SPR.
For experiment [4], the target named is T1, caveolin-1 protein. The experiment is described as follows: SPR; in the presence of 5A12 antibody.

For the molecule B1, the Kd in experiment [1] was found to be 7490 nM.
With B2, the values for the Kd (in experiment [2]; with caveolin-1 protein [3]; in the experiment with caveolin-1 protein [4]) were 818 nM, 35.7 nM and 14.9 nM, respectively.
